Test [1] addresses T1, huNav1.7α (human, UniProt Q15858 1-1988).
T1 construct: HEK cells expressing the α subunit alone; also called HEKa; HEK huNav1.7α
The test is described as follows: binding FACS, HEKa cells. How it is done:
(§1) Binding of the ISVDs to cell-expressed Nav1.7α was detected via murine anti-Flag (Sigma, catalog #F1804). Briefly, cells were resuspended in FACS buffer (PBS, 10% FBS, NaN₃) and transferred to a 96-well V-bottom plate at 1×10^5 cells/well. Purified FLAG3-tagged ISVD was diluted in FACS buffer and added to the cells for 30 minutes at 4° C. […] Prior to the read-out, the samples were resuspended in 1 μg/mL propidium iodide (Sigma, catalog #P4170) to exclude dead cells. Between each step, the cells were centrifuged for 5 minutes at 200 grams and washed with 100 μL/well FACS buffer.

The target of test [2] is T2, huNav1.7α+β1 (human, UniProt Q15858 1-1988; Q07699 19-218).
T2 construct: also called huNav1.7-beta1; HEKa/β1
Put plainly: binding FACS, HEKa/β1 cells. The method, then: as §1

Test [3] deals with T3, huNav1.7α+β1-β2-β3 (human, UniProt Q15858 1-1988; Q07699 19-218; O60939 30-215; Q9NY72 23-215).
T3 construct: 5N11S variant; also called huNav1.7-beta1-beta2-beta3; huNav1.7α+Navβ1-Navβ2-Navβ3
Put plainly: binding FACS, CHO FlpIn cells. In a few lines: (§2)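 Assessment used purified FLAG3-tagged ISVD incubated on cells for 30 minutes at 4° C in PBS containing 10% FBS and NaN₃, with cells washed between steps. Propidium iodide (1 μg/mL) staining removed dead cells from analysis.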

Test [4] has as its target T4, huNav1.7α + β1-β2-β3 (human, UniProt Q15858 1-1988; A5A6L6 19-218; O60939 30-215; Q2KI11 23-215).
T4 construct: also called huNav1.7-beta1-beta2-beta3; huNav1.7-β1-β2-β3
The test is described as follows: binding FACS, CHO FlpIn. The procedure, abridged: as §2

The target in test [5] is T5, rhNav1.7α + β1-β2-β3 (rhesus monkey).
T5 construct: also called rhNav1.7-beta1-beta2-beta3; rhNav1.7-β1-β2-β3
Put plainly: binding FACS, CHO FlpIn. In a few lines:
as §2

In test [6] the target is T6, muNav1.7α (murine, UniProt Q62205 1-1984).
T6 construct: HEK JmpIn cells; also called murine Nav1.7α
The test is described as follows: binding FACS, HEK JmpIn. The method, then: as §1

Results on 20 molecules are retold here after US20240002497A1 (Merck Sharp & Dohme, published 2024).

B1: F010301314 (VHH)
VHH: EVQLVESGGGLVQAGGSLRLSCAASGRILRIGYMRWHRQGAGKQREFVARITDDSATDYADSVKGRFTISRDNAKNTVYLQMNNLNPEDTAVYYCEALVTASVRGGSIHSGTYWGRGTLVTVSS
notes: vs 387G05: D23A
With B1, the EC50 stood at 1.9 nM in test [1], 1.8 nM in test [2] and 3.5 nM in test [3].

B2: F010301565 (VHH)
VHH: EVQLVESGGGLVQAGGSLRLSCDASGRILRIGYMRWHRQGAGKQREFVARITGDSATGYADSVKGRFTISRDNAKNTVYLQMNNLNPEDTAVYYCEALVTASVRGGSIHSGTYWGRGTLVTVSS
notes: vs 387G05: D53G, D58G
In the case of B2, the results for the EC50 in test [1], in test [2] and in test [3] were 1.4 nM, 1 nM and 2.1 nM, respectively.

B3: F010301561 (VHH)
VHH: EVQLVESGGGLVQAGGSLRLSCAASGRILRIGYMRWHRQGAGKQREFVARITGDSATDYADSVKGRFTISRDNAKNTVYLQMNNLNPEDTAVYYCEALVTASVRGGSIHSGTYWGRGTLVTVSS
notes: vs 387G05: D23A, D53G
Consider B3, for which the EC50 in test [1] worked out at 2.2 nM; in test [2], 1.2 nM; in test [3], 2.5 nM.

B4: F010301560 (VHH)
VHH: EVQLVESGGGLVQAGGSLRLSCDASGRILRIGYMRWHRQGAGKQREFVARITGGSATGYADSVKGRFTISRDNAKNTVYLQMNNLNPEDTAVYYCEALVTASVRGGSIHSGTYWGRGTLVTVSS
notes: vs 387G05: D53G, D54G, D58G
On to B4, for which the values for the EC50 in test [1], in test [2] and in test [3] were 1.2 nM, 1.1 nM and 2.1 nM, respectively.

B5: F010301564 (VHH)
VHH: EVQLVESGGGLVQAGGSLRLSCDASGRILRIGYMRWHRQGAGKQREFVARITGGSATDYADSVKGRFTISRDNAKNTVYLQMNNLNPEDTAVYYCEALVTASVRGGSIHSGTYWGRGTLVTVSS
notes: vs 387G05: D53G, D54G
Turning to B5, the half-maximal effective concentration (EC50) in test [1] turned out to be 1.9 nM; in test [2], 2.4 nM; in test [3], 3.5 nM.

B6: F010301367 (VHH)
VHH: EVQLVESGGGLVQAGGSLRLSCDASGRILRIGYMRWHRQGAGKQREFVARITGDSATDYADSVKGRFTISRDNAKNTVYLQMNNLNPEDTAVYYCEALVTASVRGGSIHSGTYWGRGTLVTVSS
notes: vs 387G05: D53G
Turning to B6, the EC50 in test [1] is 2.2 nM; in test [2], 1.9 nM; in test [3], 4.2 nM.

B7: F010301562 (VHH)
VHH: EVQLVESGGGLVQAGGSLRLSCAASGRILRIGYMRWHRQGAGKQREFVARITDGSATDYADSVKGRFTISRDNAKNTVYLQMNNLNPEDTAVYYCEALVTASVRGGSIHSGTYWGRGTLVTVSS
notes: vs 387G05: D23A, D54G
In the case of B7, the EC50 in test [1] worked out at 1.2 nM; in test [2], 1.9 nM; in test [3], 2.5 nM.

B8: F010301557 (VHH)
VHH: EVQLVESGGGLVQAGGSLRLSCAASGRILRIGYMRWHRQGAGKQREFVARITGGSATDYADSVKGRFTISRDNAKNTVYLQMNNLNPEDTAVYYCEALVTASVRGGSIHSGTYWGRGTLVTVSS
notes: vs 387G05: D23A, D53G, D54G
With B8, the EC50 in test [1] came to 2 nM; in test [2], 2.1 nM; in test [3], 3.8 nM.

B9: F010301558 (VHH)
VHH: EVQLVESGGGLVQAGGSLRLSCAASGRILRIGYMRWHRQGAGKQREFVARITGDSATGYADSVKGRFTISRDNAKNTVYLQMNNLNPEDTAVYYCEALVTASVRGGSIHSGTYWGRGTLVTVSS
notes: vs 387G05: D23A, D53G, D58G
Take B9: the results for the EC50 in test [1], in test [2] and in test [3] were 1.5 nM, 0.93 nM and 1.8 nM, respectively.

B10: F010301445 (VHH)
VHH: EVQLVESGGGLVQAGGSLRLSCDASGRILRIGYMRWHRQGAGKQREFVARITDDSATDYADSVKGRFTISRDNAKNTVYLQMNNLNPEDTAVYYCEALVTASVRGGYIHSGTYWGRGTLVTVSS
notes: vs 387G05: S100dY
B10: the EC50 in test [1] came out at 2.3 nM; in test [2] it was 2 nM; in test [3] it was 4.6 nM.

B11: F010301346 (VHH)
VHH: EVQLVESGGGLVQAGGSLRLSCDASGRILRIGYMRWHRQGAGKQREFVARITDDSATGYADSVKGRFTISRDNAKNTVYLQMNNLNPEDTAVYYCEALVTASVRGGSIHSGTYWGRGTLVTVSS
notes: vs 387G05: D58G
For the molecule B11, the EC50 was determined as 1.5 nM in test [1], 1.6 nM in test [2] and 3.4 nM in test [3].

B12: F010301556 (VHH)
VHH: EVQLVESGGGLVQAGGSLRLSCAASGRILRIGYMRWHRQGAGKQREFVARITGGSATGYADSVKGRFTISRDNAKNTVYLQMNNLNPEDTAVYYCEALVTASVRGGSIHSGTYWGRGTLVTVSS
notes: also called F0103387G05(D23A, D53G, D54G, D58G)
For B12, the values for the EC50 in test [1], in test [2] and in test [3] were 1.8 nM, 1.4 nM and 2.3 nM, respectively.

B13: F010301350 (VHH)
VHH: EVQLVESGGGLVQAGGSLRLSCDASGRILRIGYMRWHRQGAGKQREFVARITDDSATVYADSVKGRFTISRDNAKNTVYLQMNNLNPEDTAVYYCEALVTASVRGGSIHSGTYWGRGTLVTVSS
notes: vs 387G05: D58V
As to B13, the EC50 in test [1] came out at 1.6 nM; in test [2] it was 1.7 nM; in test [3], 3.5 nM.

B14: F010301559 (VHH)
VHH: EVQLVESGGGLVQAGGSLRLSCAASGRILRIGYMRWHRQGAGKQREFVARITDGSATGYADSVKGRFTISRDNAKNTVYLQMNNLNPEDTAVYYCEALVTASVRGGSIHSGTYWGRGTLVTVSS
notes: vs 387G05: D23A, D54G, D58G
With B14, the EC50 in test [1] was 0.87 nM; in test [2], 0.92 nM; in test [3], 1.8 nM.

B15: F010301566 (VHH)
VHH: EVQLVESGGGLVQAGGSLRLSCDASGRILRIGYMRWHRQGAGKQREFVARITDGSATGYADSVKGRFTISRDNAKNTVYLQMNNLNPEDTAVYYCEALVTASVRGGSIHSGTYWGRGTLVTVSS
notes: vs 387G05: D54G, D58G
On to B15, for which the EC50 in test [1] is 1.2 nM; in test [2] it was 1 nM; in test [3] it was 2.2 nM.

B16: F010301372 (VHH)
VHH: EVQLVESGGGLVQAGGSLRLSCDASGRILRIGYMRWHRQGAGKQREFVARITDDSATDYADSVKGRFTISRDNAKNTVYLQMNNLNPEDTAVYYCEALVTASVRGGGIHSGTYWGRGTLVTVSS
notes: vs 387G05: S100dG
B16: the EC50 in test [1] stood at 2.5 nM; in test [2] it was 2.3 nM; in test [3], 4.5 nM.

B17: F010301563 (VHH)
VHH: EVQLVESGGGLVQAGGSLRLSCAASGRILRIGYMRWHRQGAGKQREFVARITDDSATGYADSVKGRFTISRDNAKNTVYLQMNNLNPEDTAVYYCEALVTASVRGGSIHSGTYWGRGTLVTVSS
notes: also called F0103387G05(D23A, D58G); F0103301563
Take B17: the EC50 in test [1] was 1.5 nM; in test [2] it was 1 nM; in test [3], 1.9 nM.

B18: F010301344 (VHH)
VHH: EVQLVESGGGLVQAGGSLRLSCDASGRILRIGYMRWHRQGAGKQREFVARITDGSATDYADSVKGRFTISRDNAKNTVYLQMNNLNPEDTAVYYCEALVTASVRGGSIHSGTYWGRGTLVTVSS
notes: vs 387G05: D54G
Regarding B18, the EC50 in test [1] came out at 1.3 nM; in test [2], 2.1 nM; in test [3], 4.2 nM.

B19: F010302347 (VHH)
VHH: EVQLVESGGGVVQPGGSLRLSCAASHRAFIRDVFTGWYRQAPGKQRELVARIYEGGNTQYADSAKGRFTISRDNAKKTVYLQMNSLRPEDTALYYCLFSGTISTGREYRSGDYWGQGTLVTVSS
With B19, the values for the Bmax in test [4], in test [5] and in test [6] were 100%, 100% and 48%, respectively. Further, the values for the EC50 in test [4], in test [5] and in test [6] were 4.6 nM, 9.6 nM and 14 nM, respectively.

B20: F010302355 (VHH)
VHH: EVQLVESGGGVVQPGGSLRLSCAASHRAFIRDVFTGWYRRAPGKQRELVARIYEGGNTQYADSVKGRFTISRDNAKKTVYLQMNSLRPEDTALYYCLFSGTISTGREYRSGDYWGQGTLVTVSS
For the molecule B20, the Bmax in test [4] stood at 100%; in test [5] it was 97%; in test [6], 30%. Moreover, the values for the EC50 in test [4], in test [5] and in test [6] were 3.5 nM, 6.8 nM and 21 nM, respectively.
